Data taken from patent US20080070264A1, “Intracellular Signaling-Induced Ret-Independent Gdnf Receptor-Effected Morphological Changes” (JPMORGAN CHASE BANK N.A., priority 2003, published 2008).

How the values were obtained:
MET [1] = assay: MET activation in GFRα1-transfected NIH 3T3 fibroblasts; type: cell-based
MET [2] = assay: MET phosphorylation in MDCK cells (immunoprecipitation, Western blotting); type: cell-based, dog
Procedure: (§1) To detect MET activation, GFRα1- and RET/GFRα1-expressing MDCK or SHEP cells were starved overnight in MEM or RPMI 1640 with 1% FCS, respectively, and in serum-free medium for 2 h prior the induction. After 15 min incubation at 37° C. with GDNF (at indicated concentrations) or with 50 ng/ml HGF, cells were lysed as described. Cleared cell lysates were incubated with anti-MET antibodies (Santa Cruz Biotechnologies, Inc.) overnight at 4° C. Immunoprecipitates were collected with protein A-SEPHAROSE (Amersham Pharmacia Biotech), washed, separated by SDS-PAGE and transferred to HYBOND-ECL membranes. Membranes were immunoblotted with anti-phospho-tyrosine antibodies (Upstate Group Inc.) or anti-MET antibodies.
Alternatively, 30 μg of protein was incubated overnight at 4° C. with 10 μl Immobilized Phospho-Tyrosine Monoclonal Antibodies (Cell Signalling, NEB). Immunocomplexes were washed and analysed as described.
(§2) For all experiments, densitometry and quantifications were performed using TINA 2.0 program (Raytest, Straubenhardt, Germany).
(§3) For the inhibition of MET, and Src activation, SHEP or GFRα1- and RET/GFRα1-expressing MDCK cells were starved as described above. 1 or […] of the inhibitor PP2 (Calbiochem) was added 30 min before induction by GDNF or HGF. DMSO (dimethyl sulfoxide) was added to the positive controls together with GDNF or HGF.

[3] = system: mock-transfected MDCK cells; assay: Chemoattraction assay on collagen matrix with soaked agarose beads; type: cell-based, dog; conditions: beads soaked in GDNF 10 ng/μl; collagen I; 3 days
Text: (§4) FIG. 3B: Chemoattraction assay on collagen matrix. Only RET/GFRα1-expressing cells migrate towards GDNF-soaked agarose beads. BSA-soaked agarose beads were used as negative controls. Agarose beads are denoted by white circles. Note that mock transfected, GFRα1-expressing and RET/GFRα1-expressing cells form clusters of adherent cells (denoted by arrowhead) with BSA-soaked beads after 3 days, whereas RET/GFRα1 cells migrating towards GDNF bead are dissociated.
(§5) 3.5 cm dishes were coated with collagen I solution and 20,000 cells were seeded on the coated dish. GDNF-soaked agarose beads, prepared as described (Sainio et al., 1997), were put on the gel before it solidified. Cells around the beads were photographed daily.
(§6) In another chemotaxis assay, RET/GFRα1-, GFRα1- and mock-transfected MDCK cells were seeded on culture dishes coated with collagen I. Agarose beads were soaked in GDNF (10 ng/μl) or 1% BSA. A bead was placed on top of the soft collagen, and cells were monitored for 3 days.

[4] = system: GFRα1-expressing, RET deficient MDCK cells; assay: as above; type: cell-based, dog; conditions: beads soaked in GDNF 10 ng/μl; collagen I; 3 days
Text: as §4, §5, §6

[5] = system: RET/GFRα1-expressing MDCK cells; assay: as above; type: cell-based, dog; conditions: beads soaked in GDNF 10 ng/μl; collagen I; 3 days
Text: as §4, §5, §6

MET [6] = assay: MET phosphorylation in Neuro-2A neuroblastoma cells; type: cell-based
MET [7] = assay: MET phosphorylation in SHEP neuroblastoma cells; type: cell-based, human; conditions: GDNF 0.1 pg/ml; SHEP cells express GFRα1 but not RET; data not shown
Procedure: FIG. 7B: SHEP cells were grown with GDNF (10 ng/ml (lanes 2-4) or 5 pg/ml (lanes 5-7)) or HGF (10 ng/ml (lanes 8-9)) in the presence of PP2 (1 μM (lanes 3 and 6) and 10 μM (lanes 4 and 7)). To exclude a possible cytotoxic effect of the solvent, DMSO was added to the controls. […] The numbers below the lane indicate the fold of induction of MET tyrosine kinase. The results are representative of three independent experiments.
as §1, §2, §3

RET = target: T1, RET (UniProt P07949+Q62997); assay: RET phosphorylation in RET/GFRα1-expressing MDCK cells; type: cell-based, dog
T1 construct: expressed in transfected cells
T1 sequence (P07949 29-1114): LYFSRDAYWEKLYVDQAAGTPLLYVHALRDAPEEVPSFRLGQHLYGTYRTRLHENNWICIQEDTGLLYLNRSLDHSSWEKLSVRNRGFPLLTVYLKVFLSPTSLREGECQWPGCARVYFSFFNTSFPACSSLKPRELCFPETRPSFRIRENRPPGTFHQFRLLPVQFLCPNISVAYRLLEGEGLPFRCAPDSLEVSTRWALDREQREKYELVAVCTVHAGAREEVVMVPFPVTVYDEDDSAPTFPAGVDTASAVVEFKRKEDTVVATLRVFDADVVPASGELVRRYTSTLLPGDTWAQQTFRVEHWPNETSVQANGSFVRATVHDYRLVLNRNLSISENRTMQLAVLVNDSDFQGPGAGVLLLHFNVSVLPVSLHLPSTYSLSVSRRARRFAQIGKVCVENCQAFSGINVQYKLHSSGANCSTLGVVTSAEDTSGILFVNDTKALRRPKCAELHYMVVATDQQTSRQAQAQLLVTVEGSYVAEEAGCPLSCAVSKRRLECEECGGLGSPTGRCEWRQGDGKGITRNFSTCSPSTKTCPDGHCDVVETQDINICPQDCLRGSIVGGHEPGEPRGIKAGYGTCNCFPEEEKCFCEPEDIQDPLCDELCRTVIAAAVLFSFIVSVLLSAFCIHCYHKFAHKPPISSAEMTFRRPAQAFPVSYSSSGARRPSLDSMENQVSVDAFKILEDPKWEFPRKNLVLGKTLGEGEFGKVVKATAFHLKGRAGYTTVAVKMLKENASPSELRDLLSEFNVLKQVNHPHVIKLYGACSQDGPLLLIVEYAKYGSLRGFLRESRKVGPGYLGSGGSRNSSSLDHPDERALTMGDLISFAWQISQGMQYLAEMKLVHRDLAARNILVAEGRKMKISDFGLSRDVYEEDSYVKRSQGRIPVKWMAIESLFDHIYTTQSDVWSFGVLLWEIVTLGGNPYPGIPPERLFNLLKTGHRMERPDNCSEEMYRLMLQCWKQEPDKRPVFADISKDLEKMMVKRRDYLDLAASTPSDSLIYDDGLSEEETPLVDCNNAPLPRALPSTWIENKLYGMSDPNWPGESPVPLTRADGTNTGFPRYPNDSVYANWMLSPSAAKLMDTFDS
T1 sequence (Q62997 25-430 limits assumed): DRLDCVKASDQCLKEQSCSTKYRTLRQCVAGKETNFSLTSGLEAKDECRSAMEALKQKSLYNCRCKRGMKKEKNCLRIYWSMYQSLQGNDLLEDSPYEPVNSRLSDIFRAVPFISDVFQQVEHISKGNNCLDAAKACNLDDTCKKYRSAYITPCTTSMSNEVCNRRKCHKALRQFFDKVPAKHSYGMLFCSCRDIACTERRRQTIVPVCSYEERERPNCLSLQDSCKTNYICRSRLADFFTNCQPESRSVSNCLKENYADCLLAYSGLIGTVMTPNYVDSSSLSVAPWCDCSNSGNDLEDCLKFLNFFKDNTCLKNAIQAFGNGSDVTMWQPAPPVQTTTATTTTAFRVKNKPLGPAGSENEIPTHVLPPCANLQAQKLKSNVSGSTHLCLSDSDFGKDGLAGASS
Procedure: FIG. 4D: Dose-dependent activation of RET by GDNF in RET/GFRα1-expressing MDCK cells. […]. […] The numbers below the lanes indicate the fold of induction of RET tyrosine kinase. IP, immunoprecipitation; WB, Western blotting; P-tyr, phospho-tyrosine. The results are representative of three independent experiments.
as §1
The above procedure was also followed to detect RET phosphorylation in RET/GFRα1-expressing MDCK, however, for these experiments, anti-RET antibodies (Santa Cruz Biotechnologies, Inc.) were used for the immunoprecipitation and immunoblotting.

wild-type MDCK cells = assay: Branching tubule formation assay in 3-D collagen gel; type: cell-based, dog
Procedure: From the total amount of cysts in the field, the percentage of cysts with long branches was calculated. Only branches with lengths of more than two cyst diameters were counted.
Trypsinized cells were mixed 1:3 with collagen type I solution and plated. MEM with 10% FCS was overlaid on the gels with or without GDNF (Cephalon Inc. or R&D Systems, Inc.) or 50 ng/ml HGF. Cells in collagen were cultured for 3 days; GDNF-containing medium was changed daily. For quantification, cells were cultured for 3 days, fixed by 3% glutaraldehyde in PBS and counted under a light microscope.
To avoid the effect of possible contamination of GDNF preparation, recombinant GDNF from two different sources were tested. One tested GDNF was expressed in baculovirus-infected insect cells (Cephalon Inc.), the other was expressed in mouse myeloma cell line NSO (R&D Systems, Inc.).

MET [8] = assay: MET activation in GFRα1-transfected COS7 cells; type: cell-based

B1: GDNF: recombinant glial cell line-derived neurotrophic factor from Cephalon Inc. (baculovirus-infected insect cells) or R&D Systems, Inc. (mouse myeloma NSO) (protein, UniProt P39905 78-211, looked up)
Glial cell line-derived …: SPDKQMAVLPRRERNRQAAAANPENSRGKGRRGQRGKNRGCVLTAIHLNVTDLGLGYETKEELIFRYCSGSCDAAETTYDKILKNLSRNRRLVSDKVGQACCRPIAFDDDLSFLDDNLVYHILRKHSAKRCGCI
MET [1]
  MET activation: takes place
MET [2]; GFRα1- and Ret/GFRα1-expressing MDCK cells
  MET phosphorylation: evoked MET phosphorylation
MET [2]; GFRα1- and Ret/GFRα1-expressing MDCK cells, 15 min
  GDNF concentration at which MET activation reached saturation: 0.1 pg/mL
MET [2]; GFRα1-expressing and RET/GFRα1-expressing MDCK cells
  time to MET activation: ≤ 15 min
MET [2]; GFRα1-expressing and RET/GFRα1-expressing MDCK cells, data not shown
  duration of MET activation: at least 2 hours
MET [2]; GFRα1-expressing and RET/GFRα1-expressing MDCK cells, printed as 4 fM (0.1 pg/ml)
  concentration at which MET is saturated: 4 fM
MET [2]; wild type MDCK cells
  MET phosphorylation: but not in wild type MDCK cells
[3]
  migration towards soaked agarose bead: Neither GFRα1-expressing, RET deficient cells nor mock-transfected cells, however, were attracted
[4]
  migration towards soaked agarose bead: Neither GFRα1-expressing, RET deficient cells nor mock-transfected cells, however, were attracted
[5]
  migration towards soaked agarose bead: actively migrated towards the source of GDNF
MET [6]
  MET phosphorylation: induced MET phosphorylation
MET [7]
  MET phosphorylation: induced rapid MET phosphorylation
RET
  GDNF concentration at which RET phosphorylation reached saturation: 10 ng/mL
  GDNF concentration at which RET phosphorylation was observed: 0.1 pg/mL
RET; data not shown
  time to RET activation: ≥ 2 h
wild-type MDCK cells; ligand 100 ng/ml, 3-D collagen gel
  branching tubule formation: did not
wild-type MDCK cells; mock-transfected MDCK cells used as controls
  branching tubule formation: did not from branching tubules
MET [8]
  MET activation: takes place
